# Measurements reported in publication PMC9810080 (Biochemistry, 2022).
# Tests used:
# Test in all cases: ITC
# [1] = target: T1, CaM N-lobe fragment (residues 1–80) (UniProt P0DP23 1-80)
# [2] = target: T1, CaM N-lobe fragment (residues 1–80); remark: listed apart in the source
# [3] = target: T2, CaM C-lobe fragment (residues 80–149) (UniProt P0DP23 80-149)
# [4] = target: T2, CaM C-lobe fragment (residues 80–149); remark: listed apart in the source
# [5] = target: Calmodulin (CaM), full-length (UniProt P0DP23 1-149)
Binder,Kd [1] [µM],Ka [2] [M⁻¹],Kd [3] [µM],Ka [4] [M⁻¹],Kd [5] [µM]
"NDRLQELVKLEKERTEKVKEKLIDP (peptide, UniProt Q14028 565-589, looked up) [CaM1^F575E peptide (CNGB1 residues 565–589, F575E)]",> 50,< 20000,–,–,–
"GGKGAKGGKLAHERARLKELAALEAAAK (peptide, UniProt Q14028 1120-1147, looked up) [CaM2^L1132E peptide (CNGB1 residues 1120–1147, L1132E)]",–,–,54 ± 5,18000,–
"GGKGAKGGKLAHLRARLKELAALEAAAK (peptide, UniProt Q14028 1120-1147, looked up) [CaM2 peptide, CNGB1 residues 1120–1147]",–,< 18000,0.1 ± 0.02,9.8e+06,25 ± 4
"NDRLQELVKLFKERTEKVKEKLIDP (peptide, UniProt Q14028 565-589, looked up) [CaM1 peptide, CNGB1 residues 565–589]",5.7 ± 1,180000,29 ± 5,34000,–
"GGKGAKGGKLAHLRAREKELAALEAAAK (peptide, UniProt Q14028 1120-1147, looked up) [CaM2^L1136E peptide (CNGB1 residues 1120–1147, L1136E)]",–,–,84 ± 10,12000,–
